Source: a protein production outcome set (Wang et al. 2014)

test: label from the status in PepcDB records

| Sequence | protein production |
| --- | --- |
| MKQEETKRYESFKREFFHWFLAFSGDEPFSVAAGELLMMLKEELALQQAVLYLFDPSCDAFCPEAAAGRMPAAESIVAEEKQEIVVIDDGGPCIVVRLFFLLSEETRAMLELMYGKERHIDREWLKVLRTDLSSLFRKLSALSQRTSEENRYEQLHRFAAKIHSTMQIDDVLEEIICTLQNVYPAFTYHLLLSHDNHVCGNLPIKTLALDESEGQPAALRAFLTGQVQCEETAAPPRSVLYAPIKGVQAVYGVIQIIAPYAAPFPKREINFISLLAGTAGRALENAKLYEQSRRLVADLQLINDTMRQLNARPRLCEAIEYMVSQIKESFGADEVGFFLFADGKRELLRGSTPFFYNDLSALYVEWVEARLLSGNDILFAGDVRTSDFGPFRSIMAAPMMQNKEMKGVCIVLAYETYRFTFEMFKLLQSLVQHSTLAFMNAILREELEKLVVTDYLTKLYTRRYLDEAIQKSMEEDALGSFLLIDIDNFKQINDTYGHQTGDDVLVQVAKMIRTNIRDGDIAARWGGEELAVYLPKVALLDAIAIARRIVEKVREHTVPSVTVSCGLSSWRRHDHDDAEQLFKRADAALYMAKETGKNAIFVHDGDHLYRG | failed |
| MKQEETLTKVKVAEVTHSIFYAPLYVAESKGFFKEEGLDVDVNTTWGGDKTMTSLLSNGSDIALVGSETSIYVEAQGAKDPVINFAQLTQTDGTFLVAREDVEHFDWDQLKGKTFLGQRKGGMPQMVGEYVLNKHKIDPHKDIDLIQNIDFANIANAFASGTGEYVQLFEPQLLSLRKKASAISWLHSEKNQERFLIRLLWRNKAILEHHHHHH | failed |
| MKQIAFIGLGHMGAPMATNLLKAGYLLNVFDLVQSAVDGLVAAGASAARSARDAVQGADVVISMLPASQHVEGLYLDDDGLLAHIAPGTLVLECSTIAPTSARKIHAAARERGLAMLDAPVSGGTAGAAAGTLTFMVGGDAEALEKARPLFEAMGRNIFHAGPDGAGQVAKVCNNQLLAVLMIGTAEAMALGVANGLEAKVLAEIMRRSSGGNWALEVYNPWPGVMENAPASRDYSGGFMAQLMAKDLGLAQEAAQASASSTPMGSLALSLYRLLLKQGYAERDFSVVQKLFDPTQGQ | not failed |
| MKQKNVYIVIGFMLFALFFGAANLIYPAFLGIYSGHQILWSIIGFCLTGVSLPLLGVIAVAKSGSGDVESLARPISKWYAIFYSSILYLSIGPFFAIPRTGATSFSVGIAPILGDNTTNKAIYAILFFGLSYFLAIKPSKLAENIGKFLTPTLLVVISILVIASFVHPAGNYGDAFNAGVGVNNAFKDFPFIAGLIQGYGTMDALASLVFAILVIEATKQFGAKTDKEMTKITLISGAIAILLLALVYIFVGRIGATSQSLFPFIDGSFTLHGNPVNGGQILSHASRFYLGGIGQAFLAVVIFLACLTTSTGLITSSAEYFHKLVPALSHIAWATIFTLLSAFFYFGGLSVIINWSAPVLFLLYPLTVDLIFLVLAQKCFNNDPIVYRTTIGLTFIPAIFDALLTLSQMTGLFHLPEAVVTFFQKTVPLGQFSMGWIIFAAIGFLIGLILSKTKKS | failed |
| MKQLMLYCRSGFEKECAGEIQDKATQLEVYGFPRVKKNSGYVVFECYQDGDAEKLVKGLDFSSLIFARQMFAVAAEFEALPSEDRISPILAELSEFESFPRCGDLRIETPDTNEAKELLKFCRKFTVPMRQALRGKGLMWNKDNAKKPVLHICFVAPGHCYVGYSLPGNNSQFFMGIPRLKFPADAPSRSTLKLEEAFHVFIPRDEWDERLAPGMWGVDLGACPGGWTYQLVKRSMFVHCVDNGMMADSLMETGQIKHHMVDGFKFEPDRKNVTWIVCDMVEKPARVAHLMGQWLLKGWAKEAIFNLKLPMKGRYDEVLQDLENLKMFLIENKVKFKLQAKHLYHDREEITIHIQCLSNISPH | failed |
| MKQMNVVLIGGGTGLSVLARGLREFPIDITAIVTVADNGGSTGKIRDVMDIPAPGDIRNVIAALSDSESILTQLFQYRFGENQVDGHSLGNLVIAGMTNITNDFGHAIKELSKVLNIKGQVIPSTNASVQLNAVMEDGEIVHGETNIPKTHKKIDRVFLEPSDVEPMNEAIEALEQADLIVLGPGSLYTSVISNLCVKGISEALLRTSAPKLYVSNVMTQPGETDNYDVKEHIDALTRQVGEPFIDFVICSSESYSKDVLQRYEEKNSKPVAVHKEQLKDSGIRVLTASNLVEISNEHYVRHNTKVLSKMIYELALELTSTIRFTPSDKKK | not failed |
| MKQPNYYQDVKQFHQTFHHPGADQPTAIPLDRGVKRATWTAEEAVVEFLHQSSQNETEFLAAIETFKAGLDQAVKKSLKETYPVTEVERLVGQGDALTDALYFIMGSFVEAGLEPGPLFEIVQQANMAKLGPDGQPIFRESDQKVMKPDGWLPPEPQLEAEVVRQMKEKA | not failed |
| MKQVNVDVAVIGGGTAGLGSYRAAKAHTDSVVMIEGGPYGTTCARVGCMPSKLLIAAAESVHQIEKAPKFGIHPQGEIVINGREVMERVKFERDRFVGFVLEGVDEIPAEDKISGYAKFLDDNTLQVDDHTIINAKRIVIATGSRPAYPAVWNELGDRLIINDDVFNWDDLPKSVAVFGPGVIGLELGQALHRLGVETKLFGLGGQVGPVTDPEVMAYANKAFNEEFYLDADVKVESMKRITTESGEERVEIQFINKQGELETNIVEYVLAATGRRPNTDKLGLENTSIELDERGVPTADFYTLQTSLPTVFIAGDASNQLPLLHEAADQARIAGDNAGRFPEIRAGLRRSKISAVFSDPQIAMVGETYKEITTRLGTCGCFATGEVSFENQGRSRVMLRNKGILHVYGEQGTGRFLGAEMMGPNAEHLAHLLAWAHQNKMTVSEMLDMPFYHPVIEEGVRTALRDLNAKLHLGPEMIKHCMDCGPGC | failed |
| MKQWIAALLLMLIPGVQAAKPQKVTLMVDDVPVAQVLQALAEQEKLNLVVSPDVSGTVSLHLTDVPWKQALQTVVKSAGLITRQEGNILSVHSIAWQNDNIARQEAEQARAQANLPLENRSITLQYADAGELAKAGEKLLSAKGSMTVDKRTNRLLLRDNKTALSALEQWVAQMDLPVGQVELSAHIVTINEKSLRELGVKWTLADAQHAGGVGQVTTLGSDLSVATATTHVGFNIGRINGRLLDLELSALEQKQQLDIIASPRLLASHLQPASIKQESEIPYQVSSGESGATSVEFKEAVLGMEVTPTVLQKGRIRLKLHISQNVPGQVLQQADGEVLAIDKQEIETQVEVKSGETLALGGIFTRKNKSGQDSVPLLGDIPWFGQLFRHDGKEDERRELVVFITPRLVSSELEHHHHHH | not failed |
| MKRAYVLLIGLSMLLISLIVPFPLALSFVILAGLFIAHFSKMEEKEVNMIITATVSLFIGLLGGLLGSMIHHNISSTWTLLSAHGGLFLIALIGYFFMVLILMTLGSMIDKVISKARSKSL | failed |
| MKRCDRMNYREEYEKKLISPEEAAGLVESGMHIELGGAANTALIIDKYLAKRKDELENVKVGTFIDLAHYEFLKADPNGEVFEWSSGFLYRPVRKTSKELGPCVFRPNLYHDVPKIVREFSKDYDPIDIAYLVTTPMDKHGYFNFGLTCSHMKALAEVAEKVVVVVKENMPWVNGGYDECIHISEVDYIVEDNEMPVPFIPFSIPPTKEDEMIAENILNAETKDGRKLIQDGSTLQVGIGGLPDTVVKMLKEGGYKNLGVHTEMMGDGTLELIEEGVVTNDQKRLDRGKSVFTFALGSLKLYEYLDRNPEVATYPVDYTNDPFIIAQQPKMFSLNQAAEADLMGQINSEQMGLISPTGKLYQVSGTGGQLDFVMGCLFSRDRQGFSILAMYSTHNGTSRIKPILPPGAAVTVPRSMVQVVATEWGVAYLKGLTVKERAIAMIHLAHPDHREWLEKEAEKLGLLPPNYTIPAGKPDYLLYKRDLEHHHHHH | not failed |
| MKRFARKETIYLRGEEARTLYRLEEGLVRVVELLPDGRLITLRHVLPGDYFGEEALEGKAYRYTAEAMTEAVVQGLEPRAMDHEALHRVARNLARQMRRVQAYEAHLQTGELRARIARYLLFLADTPLSARDRQGIYVTVSHEEIADATASIRESVSKVLADLRREGLIATAYRRVYLLDLAALEREAGSALEAA | not failed |
| MKRFPGRDMRSLTELVLGRDKFRTALCCSVVGMLLTLLFLSSCHYTRPDLTSEELSEKTKDSLNYLYDRHYTWNTNLEVTTDSVTMECLPIKDTYIALYKGDRVVVAEFAIHPADSVDSVWVKLAHTQEEQGWIRETELKESFVPTDSISQAIHFFSDTHASYFMIIFALFVGVYLFRAFRRKQLQLVYFNDIDSVYPLFLCLLMAFSATVYESMQVFVPDTWEHFYFNPTLSPFKVPFILSVFLLSIWLFLIVALAVLDDLFRQLTPAAAVFYLLGLMSSCIFCYFFFILMTHIYIGYLFLAFFIWVFAKKVHRNISYKYRCGHCGEKLKEKGICPHCGAINE | failed |
| MKRHYIFASHGSFANGLLNSVELILGKQPDIHTLCAYVEEEVDLTQQVEALVARFPAQDELIVITDIFAGSVNNEFVRFLSRPHFHLLSGLNLPLIIDLLISAAEDNTEKLITEALTNAKESIQYCNQTIASAMTMDKDF | not failed |
| MKRKISSIIVVGIMLFQSLTMYPFITEAKENEQKEEINKPSKITKGLTNSLKYTKTILETGDTYDSVFPDSALAKVVAKEATGSENTTQLVTQADLNKIKSLNGYNKGISVLTGIDLLVNVTSISLNNNQVTDISPIDQLPNLVSLSVKNNQISSLILNAQNQLPKLTTIDIENNPDLNTIDIQDQPQLVDVKTSGYTGLRKLTTVIAKNNPELVNLGQYTIRNVYFSQVASLTKVELVNLPKVRKVNLERNSINELKVTDLAIEDLPLEENELTDTVFDNIQNLPNLKTLDLSKNQLEEVVLDKTDVENLPNLMTLDIQQNLAIKLINVQDQPQLVDVKTSDYKELSALTTVIAKNNPELVNLGQYTIRNVYFSQVASLTKVELVNLPKVRKVNLERNSINELKVTDLAIEDLPLEENELTDTVFDNIQNLPNLKTLDLSKNQLEEVVLDKTDVENLPNLMTLDIQQNLAIKLINVQDQPQLVDVKTSDYKELSALTTVIAKNNPELVNLGYPIMQNVYFSQVASLTKVELANLPKVRAVRLERNSINQIELNNLVSVKDVNLNTNKITNDSIEKFRGMPILATLNLNKNQITNINMLDGFPQMTTLNIDLNSISVLPSNLKTKMPKLSRISALNQTVTLGKAIVVDDSDLIINNEISNFEKLTEPSPISNFGTYANEKITWSSERIKNLTEVSFQFSELINVTGIDGTFSGKVTQPFKRSTTPVINADSEIHYPQGTEKTEAEFLKDVQAQTTDDLAIKSDFETMVNLKKVGKYTVTLNVENLDGIKATPKEVIVYIDAVQGANITVKYEDESGNKLAENSILTGNVGEEYSSSAKEILGYTLTEMPSNAQGEFSLEEQTVTYIYSKNPVPAKDITVQYTDEDGMELAPTETLSGNVDENYVTTAKTFTGYELIETPSNAEGKFSENAQTVTYVYRAIKAEPILAKEVTVNYQDELGAKISETEVLTGEIGETYTTVAKTIDGYTLIKSPTNANGIFNENPQTVTYVYQLQNSPIAANITVKHLDENNNELAPSEVLSGNVDEAYTTKPKEIKDYSLVKVPTNASGKFTTEAQTVIYHYKKNSIPTSSYITVKYVDETGKELAISKVLNGNINDSYATTAKEIKGYTLVQKPANATGKFTDQNQTIKYVYRANKAEVNPNPNSDVLGSNSNGDIQPTNDIKPTNDVQPTNEAPQTLPKTGSQPANLIFGLGILLVLLSTQWLHRNKRKKAKSHNC | failed |
| MKRKKPTIHDVAAKAGVGLGTVSRVLNDHPAVRHETRARVLRAMEELGYAPNPHARRIAGGRSYTVSVLLPFVATEFYRRLVEGIEGVLLEQRYDLALFPILSLARLKRYLENTTLAYLTDGLILASYDLTERFEEGRLPTERPVVLVDAQNPRYDSVYLDNRLGGRLAGAYLARFPGPIFAIAVEEEPDRAFRRTVFAERMAGFQEALKEAGRPFSPDRLYITRHSQEGGRLALRHFLEKASPPLNVFAGADQV | not failed |
